We go through 25 molecules from patent US20110189183A1.

As usually defined, the EC50 is the concentration at which the effect is half-maximal.

Experiment [1] concerns the target Candida albicans (Cat. No. 10231, ATCC) whole cells (Candida albicans). Put plainly: luminescent ELISA, Fab on C. albicans cells. A general note: ELISA stands for enzyme-linked immunosorbent assay.
Experiment [2] shares this target. Put plainly: converted from Table 20a with a Fab of about 50 kDa.
Experiment [3] shares this target. Put plainly: luminescent C. albicans ELISA, Fab; assay background 950.
Experiment [4] shares this target. The experiment is described as follows: C. albicans FACS, mean FITC fluorescence, Fab; assay background 100.
For experiment [5] the target is unchanged. Put plainly: FACS, IgG on fixed cells. On the technique in general: A flow cytometer gives signals particle by particle.
For experiment [6], the target named is Candida glabrata clinical isolate, whole cells (Candida glabrata). Put plainly: FACS, IgG on fixed cells.
The target in experiment [7] is Candida krusei clinical isolate, whole cells (Candida krusei). Put plainly: FACS, IgG on fixed cells.
Experiment [8] concerns the target Candida tropicalis clinical isolate, whole cells (Candida tropicalis). Put plainly: FACS, IgG on fixed cells.
Experiment [9] addresses Candida albicans (Cat. No. 10231, ATCC) whole cells (Candida albicans). The experiment is described as follows: luminescent ELISA on C. albicans cells.
Experiment [10] shares this target. Put plainly: colorimetric ELISA on C. albicans cells.
The target is the same in experiment [11]. Put plainly: colorimetric ELISA on C. albicans cells, [50% Max].
Experiment [12] shares this target. The experiment is described as follows: FACS, IgG on fixed C. albicans cells; end tied to 1H12 by Table 23.
The target is the same in experiment [13]. The experiment is described as follows: FACS, IgG on fixed C. albicans cells, concentration at 50% maximum binding.
The target is the same in experiment [14]. Put plainly: FACS, IgG on fixed C. albicans cells; end tied to 1F8 by Table 23.

Positions count from the first letter of the chain named.

B1: 1H12 Fab (Fab, V domains shown)
VH: EVQLVESGGGLVKAGGSLILSCGVSNFRISAHTMNWVRRVPGGGLEWVASISTSSTYRDYADAVKGRFTVSRDDLEDFVYLQMHKMRVEDTAIYYCARKGSDRLSDNDPFDAWGPGTVVTVSP
VL: GVVMTQSPSTLSASVGDTITITCRASQSIETWLAWYQQKPGKAPKLLIYKASTLKTGVPSRFSGSGSGTEFTLTISGLQFDDFATYHCQHYMPYRASFGQGTRVEIKR
Molecule B1 showed an Approximate Affinity in experiment [1] of 9 µg/mL. In [2], this molecule showed an affinity (converted to molar) of 180 nM. Besides, the ELISA (RFU) in experiment [3] was 1710 RFU. In addition, the FACS (MF) in experiment [4] stood at 2080 MF.

B2: ID-3-RD5-P2E9 Fab (Fab, V domains shown)
VH: B1 VH
VL: GVVMTQSPSTLSASVGDTITITCRASQSIETWLAWYQQKPGKAPKLLIYKASTLKTGVPSRFSGSGSGTEFTLTISGLQFDDFATYHCQHYTPHFGATFGQGTRVEIKR
B2 gave an ELISA (RFU) in [3] of 8000 RFU. In experiment [4], this molecule showed an FACS (MF) of 8910 MF.

B3: 1H12 IgG (antibody, V domains shown)
VH: B1 VH
VL: B1 VL
As to B3, the affinity was 10 nM in [5], 12 nM in experiment [6], 17 nM in [7] and 23 nM in [8]. For the same molecule, the EC50 in experiment [9] was determined as 6.1 nM; in experiment [10] it was 0.82 nM; in experiment [11], 0.4 nM; in experiment [13], 5.2 nM. Moreover, the fold increased binding affinity against wildtype 2G12 in [12] was 30 fold.

B4: P4H12 IgG (antibody, V domains shown)
VH: B1 VH
VL: B2 VL with P93A, F95R
In the case of B4, in [8], the affinity was found to be 21 nM.

B5: P2H12 Fab (Fab, V domains shown)
VH: B1 VH
VL: B2 VL with P93D, F95H
In turn, B5 displayed an Approximate Affinity in experiment [1] of 2 µg/mL. Moreover, in experiment [2], the affinity (converted to molar) turned out to be 40 nM.

B6: ID-2-RD6-P1H11 Fab (Fab, V domains shown)
VH: B1 VH
VL: B1 VL with P93A, R95D, S97T
With B6, the ELISA (RFU) in [3] came to 13000 RFU. Further, the FACS (MF) in [4] was determined as 3760 MF.

B7: A4F10 IgG (antibody, V domains shown)
VH: B1 VH
VL: B2 VL with P93D, F95Y
For the molecule B7, the affinity in experiment [5] and in experiment [7] was 50 nM in each case.

B8: P1F9 IgG (antibody, V domains shown)
VH: B1 VH
VL: B2 VL with T92R, P93A, F95T
Take B8: the affinity stood at 23 nM in [5], 102 nM in [6], 27 nM in experiment [7] and 51 nM in experiment [8]. The EC50 in [9] was 19 nM; in experiment [10], 3.2 nM.

B9: A2A12 IgG (antibody, V domains shown)
VH: B1 VH
VL: B2 VL with P93A, F95T
As to B9, the affinity in experiment [5] and in experiment [7] was 50 nM throughout.

B10: ID-3-RD6-P1H10 Fab (Fab, V domains shown)
VH: B1 VH
VL: B2 VL with P93A, F95N
As to B10, the ELISA (RFU) in [3] stood at 50000 RFU. In [4], this molecule registered an FACS (MF) of 3380 MF.

B11: 1F8 IgG (antibody, V domains shown)
VH: B1 VH
VL: B1 VL with M92L, Y94F, R95N, S97T
Turning to B11, the EC50 in experiment [11] was found to be 0.9 nM; in experiment [13], 15.1 nM. Also, the fold increased binding affinity against wildtype 2G12 in experiment [14] stood at 10 fold.

B12: 2G12 IgG (wildtype, made in house) (antibody, V domains shown)
VH: B1 VH
VL: B1 VL with G1D, M92A, P93G, R95S, S97T
On to B12, for which the fold higher affinity than 2G12 Polymun in [10] was found to be 8 fold. Further, the EC50 was determined as 9.7 nM in [11] and 150 nM in experiment [13].

B13: ID-1-RD5-P2H8 Fab (Fab, V domains shown)
VH: B1 VH
VL: B1 VL with M92R, P93E, Y94W, R95H, S97T
Consider B13, for which the ELISA (RFU) in [3] turned out to be 3500 RFU. The molecule also showed an FACS (MF) in [4] of 4930 MF.

B14: A1E8 IgG (antibody, V domains shown)
VH: B1 VH
VL: B2 VL with P93D, F95K
In the case of B14, the affinity in [5] and in experiment [7] was 50 nM in each case.

B15: A1G7 IgG (antibody, V domains shown)
VH: B1 VH
VL: B2 VL with P93D, F95R
With B15, the affinity in experiment [5] and in experiment [7] was 50 nM throughout.

B16: P2H12 IgG (antibody, V domains shown)
VH: B1 VH
VL: B2 VL with P93D, F95H
For B16, the affinity in experiment [5] and in experiment [7] was 50 nM in each case.

B17: A5G10 IgG (antibody, V domains shown)
VH: B1 VH
VL: B2 VL with T92R, F95T
On to B17, for which the figures for the affinity in experiment [5], in [6] and in experiment [7] were 50 nM, 72 nM and 50 nM, respectively.

B18: A4F10 Fab (Fab, V domains shown)
VH: B1 VH
VL: B2 VL with P93D, F95Y
In experiment [1], B18 registered an Approximate Affinity of 1 µg/mL. Also, the affinity (converted to molar) in [2] is 20 nM.

B19: ID-1-RD4-P2G9 Fab (Fab, V domains shown)
VH: B1 VH
VL: B1 VL with M92Q, Y94F, R95D, S97T
As for B19, the ELISA (RFU) in experiment [3] turned out to be 4000 RFU. Further, the FACS (MF) in experiment [4] came out at 2350 MF.

B20: 2G12 Polymun (Cat. No. AB002, Polymun Scientific) (antibody, V domains shown)
VH: B1 VH
VL: B1 VL with G1D, M92A, P93G, R95S, S97T
In the case of B20, the affinity in experiment [5] came out at 500 nM; in experiment [7], 1000 nM. Moreover, the EC50 in experiment [10] was 500 nM; in experiment [11] it was 76.3 nM; in experiment [13] it was 500 nM.

B21: ID-3-RD5-P2H7 Fab (Fab, V domains shown)
VH: B1 VH
VL: B2 VL with T92R, P93A, F95S
Take B21: the ELISA (RFU) in [3] came out at 27000 RFU. The same molecule gave an FACS (MF) in experiment [4] of 10600 MF.

B22: ID-1-RD4-P2C10 Fab (Fab, V domains shown)
VH: B1 VH
VL: B1 VL with M92K, Y94F, R95M, S97T
B22: the ELISA (RFU) in experiment [3] turned out to be 7900 RFU. The FACS (MF) in [4] came out at 10600 MF.

B23: ID-2-RD4-P1A5 Fab (Fab, V domains shown)
VH: B1 VH
VL: B1 VL with M92L, P93S, R95N, S97T
In experiment [3], B23 showed an ELISA (RFU) of 8140 RFU. In addition, the FACS (MF) in experiment [4] amounted to 4000 MF.

B24: ID-2-RD6-P1H10 Fab (Fab, V domains shown)
VH: B1 VH
VL: B1 VL with M92Q, Y94F, R95K, S97T
Take B24: the ELISA (RFU) in experiment [3] was 5000 RFU. Besides, in experiment [4], the FACS (MF) turned out to be 2190 MF.

B25: A1G7 Fab (Fab, V domains shown)
VH: B1 VH
VL: B2 VL with P93D, F95R
As to B25, in experiment [1], the Approximate Affinity worked out at 1.5 µg/mL. The affinity (converted to molar) in experiment [2] is 30 nM.
